In US20210070868A1 one finds Kd data, which are given here for one substance.

The assay addresses w.t. (UniProt P08581). The assay can be described thus: ELISA.

As for DN30, the Kd (in general, the free concentration of one partner at which half of the binding sites on the other are occupied at equilibrium, for simple one-to-one binding) turned out to be 446 pM. In other words, the sub-nanomolar range.
